Reference: patent EP4624486A1 (Guangdong Raynovent Biotech Co., Ltd., dated 2025)
Bridge positions count the residues as written; N and C are the ends. Square brackets hold non-standard residues; d marks the D form. Ends that are not written are not given here. stapled body chem0195 = not defined here; stapled body chem0208 = not defined here; stapled body chem0209 = not defined here; stapled body chem0212 = not defined here; stapled body chem0214 = not defined here; stapled body chem0215 = not defined here; αMeL = CC(C)C[C@](C)(N)C(=O)O; Orn = NCCC[C@H](N)C(=O)O; Aib = CC(C)(N)C(=O)O

T1: GIP receptor (GIPR) (UniProt P48546 22-466, limits assumed)
T1 sequence (looked up): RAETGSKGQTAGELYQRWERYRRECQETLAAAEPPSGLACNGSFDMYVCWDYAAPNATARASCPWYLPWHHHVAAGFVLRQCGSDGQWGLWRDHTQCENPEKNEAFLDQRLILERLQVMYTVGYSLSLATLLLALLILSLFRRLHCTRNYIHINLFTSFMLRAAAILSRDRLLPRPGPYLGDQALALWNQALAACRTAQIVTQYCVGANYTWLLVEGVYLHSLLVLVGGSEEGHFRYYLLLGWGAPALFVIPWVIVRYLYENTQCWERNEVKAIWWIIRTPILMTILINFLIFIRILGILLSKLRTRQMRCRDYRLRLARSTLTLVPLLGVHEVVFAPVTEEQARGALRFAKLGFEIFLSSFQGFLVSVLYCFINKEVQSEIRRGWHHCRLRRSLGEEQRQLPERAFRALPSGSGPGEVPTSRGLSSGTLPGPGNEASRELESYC


How the values were obtained:
Assay in all cases: cell-based or functional assay
GCG receptor (GCGR) = GCG receptor (GCGR) (UniProt P47871 26-477, limits assumed)
GLP-1 receptor (GLP-1R) = GLP-1 receptor (GLP-1R) (UniProt P43220 24-463, limits assumed)
GIP receptor (GIPR) = target: T1, GIP receptor (GIPR)

Sequence of GCG receptor (GCGR) (P47871 26-477 limits assumed): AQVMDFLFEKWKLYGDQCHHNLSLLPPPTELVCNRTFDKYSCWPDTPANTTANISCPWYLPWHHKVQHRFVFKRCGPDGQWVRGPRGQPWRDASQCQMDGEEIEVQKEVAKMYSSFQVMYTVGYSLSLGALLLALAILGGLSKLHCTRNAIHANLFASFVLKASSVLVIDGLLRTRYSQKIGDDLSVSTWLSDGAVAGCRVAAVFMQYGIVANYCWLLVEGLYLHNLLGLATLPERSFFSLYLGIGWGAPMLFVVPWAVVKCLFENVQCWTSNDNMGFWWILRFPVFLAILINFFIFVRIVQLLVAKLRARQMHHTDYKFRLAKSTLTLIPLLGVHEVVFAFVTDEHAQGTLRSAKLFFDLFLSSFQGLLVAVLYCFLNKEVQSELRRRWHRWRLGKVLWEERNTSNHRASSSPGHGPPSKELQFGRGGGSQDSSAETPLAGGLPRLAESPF

Row | Binder | GCG EC50 (nM); cAMP, agonistic activity (GCG receptor (GCGR)) [nM] | GLP-1 EC50 (nM); cAMP, agonistic activity (GLP-1 receptor (GLP-1R)) [nM] | GIP-1 EC50 (nM); cAMP, agonistic activity (GIP receptor (GIPR)) [nM]
1 | Y[Aib]QGTFTSDYSI[αMeL]LDKKAQ[Aib][dK]FIEYLLEGGPSSGAPPPS-NH2 (linker 17-21 via stapled body chem0214; reading uncertain; also: further groups not given here) [Example 16] | 0.042 | 0.002 | 0.0001
2 | Y[Aib]QGTFTSDYSI[αMeL]LDKKAQ[Aib]AFIEKLLEGGPSSGAPPPS-NH2 (linker 25-28 via Lys, AEEA, γGlu, C20 diacid) [Example 3] | 1.68 | 0.025 | 0.003
3 | Y[Aib]QGTFTSDYSI[αMeL]LDKKAQ[Aib]KFIEFLLKGGPSSGAPPPS-NH2 (linker 21-28 via Ida, Lys, Lys, γGlu, C20 diacid; also: further groups not given here) [Example 26] | 0.11 | 0.014 | 0.0005
4 | Y[Aib]QGTFTSDYSI[αMeL]LDKKAQ[Aib]AFIKYLLEGGPSSGAPPPS-NH2 (linker 17-24 via Ida, Lys, Lys, γGlu, C20 diacid) [Example 18] | 0.052 | 0.008 | 0.0004
5 | Y[Aib]QGTFTSDYSI[αMeL]LDKKAQ[Aib]AFIKWLLKGGPSSGAPPPS-NH2 (linker 24-28 via stapled body chem0195; reading uncertain; also: further groups not given here) [Example 2] | 0.279 | 0.009 | 0.001
6 | Y[Aib]QGTFTSDYSI[αMeL]LDKKAQ[Aib]KFIEFLLEGGPSSGAPPPS-NH2 (bridge 17-21; also: stapled body between K17 and K21 is given only as a drawing, not in text) [Example 9] | 0.022 | 0.005 | 0.0004
7 | Y[Aib]QGTFTSDYSI[αMeL]LDKKAQ[Aib]KFIEFLIEGGPSSGAPPPS-NH2 (linker 17-21 via Ida, Lys, Lys, γGlu, C20 diacid) [Example 23] | 0.096 | 0.007 | 0.0004
8 | Y[Aib]QGTFTSDYSI[αMeL]LDKKAQ[Aib]KFIEYLLEGGPSSGAPPPS-NH2 (bridge 17-21) [Example 8] | 0.012 | 0.004 | 0.0004
9 | Y[Aib]QGTFTSDYSI[αMeL]KDKKAQ[Aib]AFIEYLLEGGPSSGAPPPS-NH2 (linker 14-17 via (2-2-oxoethyl)‑glycine, AEEA, γGlu, C20 diacid) [Example 21] | 0.039 | 0.02 | 0.0008
10 | Y[Aib]QGTFTSDYSI[αMeL]LDKKAQ[Aib]KFIEYLLEGGPSSGAPPPS-NH2 (bridge 17-21; also: stapled body between K17 and K21 is given only as a drawing, not in text) [Example 6] | 0.017 | 0.005 | 0.0005
11 | Y[Aib]QGTFTSDYSI[αMeL]LDKKAQ[Aib]KFIEYLLEGGPSSGAPPPS-NH2 (linker 17-21 via Glu, AEEA, AEEA, γGlu, C20 diacid) [Example 12] | 0.007 | 0.002 | 0.0001
12 | Y[Aib]QGTFTSDYSI[αMeL]LDKKAQ[Aib]AFIKYLLEGGPSSGAPPPS-NH2 (linker 17-24 via stapled body chem0209; reading uncertain; also: further groups not given here) [Example 11] | 0.129 | 0.006 | 0.0003
13 | Y[Aib]QGTFTSDYSI[αMeL]LDKKAQ[Aib]EFIEYLLEGGPSSGAPPPS-NH2 (linker 17-21 via stapled body chem0208; reading uncertain; also: further groups not given here) [Example 10] | 0.057 | 0.009 | 0.0003
14 | Y[Aib]QGTFTSDYSI[αMeL]KDKKAQ[Aib]AFIEYLLKGGPSSGAPPPS-NH2 (linker 14-17 via (2-2-oxoethyl)‑glycine, AEEA, γGlu, C20 diacid) [Example 38] | 0.018 | 0.002 | 0.0002
15 | H[Aib]HGTFTSDYSIYLEKKYA[Aib]KFVQWLLEGGPSSGAPPPS-NH2 (bridge 17-21; not fully specified (bridges); also: stapled body (lipidated) structure only in drawing chem0198) [Example 5] | 0.012 | 0.029 | 0.007
16 | Y[Aib]QGTFTSDYSI[αMeL]KDKKAQ[Aib]AFIEYLLEGGPSSGAPPPS-NH2 (linker 14-17 via (2-2-oxoethyl)‑glycine, AEEA, γGlu, 19‑phosphonononadecanoic acid) [Example 43] | 0.042 |  | 
17 | Y[Aib]QGTFTSDYSI[αMeL]LDKKAQ[Aib]KFIEYLLEGGPSSGAPPPS-NH2 (bridge 17-21; also: further groups not given here) [Example 7] | 0.061 | 0.005 | 0.0003
18 | Y[Aib]QGTFTSDYSI[αMeL]LDKKAQ[Aib]KFIEYLLKGGPSSGAPPPS-NH2 (linker 21-28 via stapled body chem0212; reading uncertain; also: further groups not given here) [Example 14] | 0.028 | 0.001 | 0.0001
19 | H[Aib]HGTFTSDYSIYLEKKYA[Aib]EFVKWLLKGGPSSGAPPPS-NH2 (bridge 24-28; not fully specified (bridges); also: stapled body (lipidated) structure only in drawing chem0197) [Example 4] | 0.143 | 0.023 | 0.016
20 | Y[Aib]QGTFTSDYSI[αMeL]LDKKAQ[Aib]KFIEFLLEGGPSSGAPPPS-NH2 (linker 17-21 via Ida, Lys, Lys, γGlu, C20 diacid) [Example 22] | 0.034 | 0.009 | 0.0004
21 | Y[Aib]QGTFTSDYSK[αMeL]LDKKAQ[Aib]AFIEFLLEGGPSSGAPPPS-NH2 (linker 12-16 via Ida, Lys, Lys, γGlu, C20 diacid; also: further groups not given here) [Example 28] | 0.11 | 0.011 | 0.0008
22 | Y[Aib]QGTFTSDYSI[αMeL]LDKKAQ[Aib]KFIEYLLEGGPSSGAPPPS-NH2 (linker 17-21 via (2-2-oxoethyl)‑glycine, AEEA, AEEA, γGlu, C20 diacid) [Example 1] | 0.024 | 0.009 | 0.001
23 | Y[Aib]QGTFTSDYSI[αMeL]LDKKAQ[Aib][Orn]FIEYLLEGGPSSGAPPPS-NH2 (linker 17-21 via stapled body chem0215; reading uncertain; also: further groups not given here) [Example 17] | 0.016 | 0.001 | 0.0001
